Data published in PMC11982978 (2025).
Square brackets hold non-standard residues; d marks the D form. Ends that are not written are not given here.

Molecular target: Active phosphorylated His6-tagged ERK2 WT (rat (p-0033 says mouse), UniProt P63086 3-358, phosphorylated (active form; sites not given))

For [dL][dC][dA][dR][dR]G[dL][dY][dC][dL][dS][dL][dD][dH] (cysteine pairing not given here) [FAAP100 D-peptide], the IC50 was 92 µM.
